Test results reported in patent US20120052070A1 (Novartis, published 2012).

T1: recombinant human DKK1 (human, UniProt O94907 32-266)
T1 sequence: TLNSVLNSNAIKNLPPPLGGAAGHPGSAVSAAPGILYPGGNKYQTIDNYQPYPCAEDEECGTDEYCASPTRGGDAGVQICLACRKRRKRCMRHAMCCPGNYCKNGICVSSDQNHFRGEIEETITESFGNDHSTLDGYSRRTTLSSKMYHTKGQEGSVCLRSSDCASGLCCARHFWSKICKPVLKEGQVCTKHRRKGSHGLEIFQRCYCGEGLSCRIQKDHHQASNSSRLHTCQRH


Target: T1, recombinant human DKK1
Experiment: cell-based or functional assay

EC50, reactivation of DKK1 inhibited wnt signaling [nM]	apparent EC50, TCF/LEF luciferase reporter (SuperTopflash, Kremen) with 10 ng/ml rhDKK1 and Wnt3a conditioned medium [nM]	Binder
< 1	–	anti-DKK1 FAb MOR04910 (Fab, V domains shown) VH: QVQLVESGGGLVQPGGSLRLSCAASGFTFSSYWMSWVRQAPGKGLEWVSGISYSGSNTHYADSVKGRFTISRDNSKNTLYLQMNSLRAEDTAVYYCARMGIDLDYWGQGTLVTVSS VL: DIALTQPASVSGSPGQSITISCTGTSSDVGGFNYVSWYQQHPGKAPKLMIHDGSNRPSGVSNRFSGSKSGNTASLTISGLQAEDEADYYCQSWDVSPITAVFGGGTKLTVLG
–	0.16	anti-DKK1/4 antibody (antibody, V domains shown) VH: QVQLVESGGGLVQPGGSLRLSCAASGFTFSSYWMSWVRQAPGKGLEWVSGISYSGSNTHYADSVKGRFTISRDNSKNTLYLQMNSLRAEDTAVYYCARMGIDLDYWGQGTLVTVSS VL: DIALTQPASVSGSPGQSITISCTGTSSDVGGFNYVSWYQQHPGKAPKLMIHDGSNRPSGVSNRFSGSKSGNTASLTISGLQAEDEADYYCQSWDVSPITAVFGGGTKLTVLG
